Assay results taken from PMC5177502.

Target: Human recombinant FGF 1 (fibroblast growth factor 1) (human) (UniProt P05230)
Assay: native MS

- stoichiometry N: 2
Substance: Human recombinant FGF 1 (fibroblast growth factor 1) (from UniProt P05230 16-155) (natural protein)
